“And” between values parts separate entries of the source, which are not always exact repeats. Equal values may be shown once.

Experiment [1] concerns the target T1, human Siglec-2-his protein (Acrobiosystems, Cat CD2-H52H8) (human, UniProt P20273 20-687).
T1 construct: Bought protein; not shown: his tag
T1 sequence (looked up): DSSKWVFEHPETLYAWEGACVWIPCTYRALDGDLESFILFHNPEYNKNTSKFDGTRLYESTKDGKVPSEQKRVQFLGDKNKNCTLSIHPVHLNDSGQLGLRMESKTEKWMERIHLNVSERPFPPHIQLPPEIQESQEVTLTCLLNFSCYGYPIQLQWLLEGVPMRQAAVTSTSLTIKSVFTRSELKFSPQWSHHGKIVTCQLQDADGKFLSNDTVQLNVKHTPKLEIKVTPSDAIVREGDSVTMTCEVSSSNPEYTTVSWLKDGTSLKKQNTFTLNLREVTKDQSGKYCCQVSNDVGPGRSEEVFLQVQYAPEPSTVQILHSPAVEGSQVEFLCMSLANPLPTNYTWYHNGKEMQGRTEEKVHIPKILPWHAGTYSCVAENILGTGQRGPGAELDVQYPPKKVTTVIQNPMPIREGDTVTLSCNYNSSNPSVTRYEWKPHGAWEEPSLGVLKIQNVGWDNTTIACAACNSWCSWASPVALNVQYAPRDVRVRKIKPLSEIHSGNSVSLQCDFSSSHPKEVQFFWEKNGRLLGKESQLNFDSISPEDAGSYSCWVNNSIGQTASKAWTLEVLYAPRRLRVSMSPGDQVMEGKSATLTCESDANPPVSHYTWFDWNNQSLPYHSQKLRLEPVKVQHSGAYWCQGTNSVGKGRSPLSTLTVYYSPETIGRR
The experiment can be described thus: ELISA on coated human Siglec-2-his, antibody at 100 nM and 10 nM, goat anti-human IgG-HRP, OD450. The method, then: Human Siglec-15 ECD-his protein (Acrobiosystems, Cat SG5-H52H3), human Siglec-2-his protein (Acrobiosystems, Cat CD2-H52H8), human Siglec-4a-his protein (Acrobiosystems, Cat MAG-H52H8), human Siglec-3-his protein (Acrobiosystems, Cat CD3-H5226), human Siglec-10-his protein (Acrobiosystems, Cat SIO-H52H9), and human PD-L1/B7-H1-his protein (Acrobiosystems, Cat PD1-H5229), each at 1 μg/mL and dissolved in PBS, were each added to an ELISA plate at 100 μL/well for coating and the plate was incubated overnight at 4° C. The ELISA plate was then blocked with PBST (PBS+0.05% Tween 20) containing 2% BSA at 200 μL/well and incubated at 37° C. for 1 h. The ELISA plate was washed 4 times with PBST. The anti-Siglec-15 antibody diluted in a gradient (concentrations: 100 nM and 10 nM) was added to the ELISA plate at 100 μL/well and the plate was incubated at 37° C. for 1 h. The ELISA plate was washed 4 times with PBST. The goat anti-human IgG (H+L)-HRP (1:5000, Jackson, Cat 109-035-088) was added at 100 μL/well and the plate was incubated at 37° C. for 1 h. The ELISA plate was washed 4 times with PBST. The TMB substrate (Biopanda, Cat TMB-S-003) was added at 100 μL/well, and the plate was incubated at room temperature for 5 min, and then the stop buffer (Solarbio, Cat #: C1058) was added at 100 μL/well to stop the reaction.
(In an ELISA, binding on a coated surface is turned into a signal by an enzyme label.)

Experiment [2] addresses T2, cynomolgus monkey Siglec-15-his protein (Acrobiosystems, Cat #: SG5-C52H6) (cynomolgus monkey, UniProt Q6ZMC9 20-263 (human entry)).
T2 construct: Bought protein; also called cynomolgus monkey Siglec-15 protein; not shown: his tag
T2 chain: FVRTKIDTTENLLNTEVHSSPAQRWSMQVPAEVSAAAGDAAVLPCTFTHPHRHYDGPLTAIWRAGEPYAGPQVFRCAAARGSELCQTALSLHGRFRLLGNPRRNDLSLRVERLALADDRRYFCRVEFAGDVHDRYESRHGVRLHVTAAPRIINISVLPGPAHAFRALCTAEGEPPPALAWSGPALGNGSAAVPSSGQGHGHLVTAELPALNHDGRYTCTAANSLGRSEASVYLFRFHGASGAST
As to the kind of experiment: ELISA, coated cynomolgus monkey Siglec-15-his. The method, then:
(§1) 1 g/mL cynomolgus monkey Siglec-15-his protein (Acrobiosystems, Cat #: SG5-C52H6) dissolved in PBS was added to an ELISA plate at 100 μL/well for coating and the plate was incubated overnight at 4° C. The ELISA plate was then blocked with PBST (PBS+0.05% Tween 20) containing 2% BSA at 200 μL/well and incubated at 37° C. for 1 h. The ELISA plate was washed 4 times with PBST. The anti-Siglec-15 antibody diluted in a gradient (5-fold dilution, starting concentration: 6.67 nM) was added to the ELISA plate at 100 µL/well and the plate was incubated at 37° C. for 1 h. The ELISA plate was washed 4 times with PBST. The goat anti-human IgG (H+L)-HRP (1:5000, Jackson, Cat #: 109-035-088) was added at 100 μL/well and the plate was incubated at 37° C. for 1 h. The ELISA plate was washed 4 times with PBST. The TMB substrate (Biopanda, Cat #: TMB-S-003) was added at 100 μL/well, and the plate was incubated at room temperature for 5 min, and then the stop buffer (Solarbio, Cat #: C1058) was added at 100 μL/well to stop the reaction.

In experiment [3] the target is T3, mouse Siglec-15-his protein (Acrobiosystems, Cat #: SG5-M52H7) (mouse).
T3 construct: Bought protein; also called mouse Siglec-15 protein
The experiment can be described thus: ELISA, coated mouse Siglec-15-his. The method, then:
as §1, with “[…] mouse” for “g/mL cynomolgus monkey”, “#: SG5-M52H7)” for “#: SG5-C52H6)”, “100 μL/well” for “100 µL/well”, “Jackson, Cat:” for “Jackson, Cat #:”, “(Biopanda, Cat:” for “(Biopanda, Cat #:”

B1: PR300066 (Tab) (antibody, human IgG1, kappa, V domains shown)
VH: QVQLQQPGAELVKPGASVKMSCKASGYTFTSYWITWVIQRPGQGLEWIGDIYCGSDTMHYNEKFKNKATLTVDTSSSTAYMQLSSLTSEDSAVYYCARWWDYGSSYDYFDYWGQGTTLTVSS
VL: DIKMTQSPSSMYASLGERVTITCKASQDINSYLSWFQQKPGKSPKTLIYRANRLVDGVPSRFSGSGSGQDYSLTISSLEYEDMGIYYCLQYDEFPYTFGGGTKLEIKR
notes: variable region from clone 5G12 of WO 2018/057735A1, on human IgG1/kappa constant regions; also called 5G12
As for B1, the binding result in experiment [1] is given as “no binding (tested: 100 nM)”. Moreover, the 50% effective concentration (EC50) in experiment [2] is 0.025 nM and 0.012 nM; in experiment [3], 0.019 nM and 0.023 nM.

B2: PR301289 (antibody, human IgG1, kappa, V domains shown)
VH: QVQLVQSGAEVKKPGASVKVSCRASGYTFTSYDINWVRQATGQGLEWMGWMNPHSGDTGYAQNFQGRVTMTWNTSISTAYMELSSLRSEDTAVYYCARRRVGVYYYGMDVWGQGTTVTVSS
VL: ENVLTQSPGTLSLSPGERATLSCRASQSVSSSYFGWYQQKPGQAPRLLIYGASSRATGIPDRFSGSGSGTDFTLTISRLEPEDFAVYYCQQYGSSPITFGQGTRLEIKR
notes: Parent of the PTM variants PR301289-1 and -2
On to B2, for which, in experiment [1], the binding result is reported as “no binding (tested: 100 nM)”. Also, the EC50 in experiment [2] came to 0.104 nM; in experiment [3] it was 0.036 nM.

B3: PR301286 (antibody, human IgG1, kappa, V domains shown)
VH: QVQLVESGGGVVQPGKSLRLSCAASGFTFSSYGMHWVRQAPGKGLEWVAVIWIDGSNRYYAASVKGRFTISRDNSKNTLYLQMNSLRAEDTAVYYCTRGYGDYAYVMDVWGQGASVTVSS
VL: DIVMTQSPLSLPVTPGEPASISCRSSQSLLPGNGYNYLDWYLQKPGQSPQLLIYLGSNRASGVPDRFSGSGSGTDFTLKISRVEAEDVGIYYCMQALQSPLTFGGGTKVEIKR
notes: Parent of the PTM variants PR301286-1, -3, -5, -6, -7
In the case of B3, the binding result in experiment [1] is “no binding (tested: 100 nM)”. Besides, the EC50 in experiment [2] was 0.09 nM; in experiment [3], 0.051 nM.

B4: PR301285 (antibody, human IgG1, kappa, V domains shown)
VH: QVQLQESGPGLVKPSETLSLTCTVSGGSMISYYWSWLRQPPGKGLEWIGYIYYSGNTNYNPSLKSRITIAVDTSKNQFSLKLNSVTAADTAVYYCARERELHPYYFDYWGQGTLVTVSS
VL: DIQLTQSPSFLSASVGDRVTITCRASQGIDNYLAWYQQKPGKAPKVLIYAASTLQSGVPSRFSGSGSGTEFTLTISSLQPEDFATYYCQQLNSYPLTFGGGTKVEIKR
On to B4, for which the binding result in experiment [1] is given as “no binding (tested: 100 nM)”. The same molecule returned an EC50 in experiment [2] of 0.038 nM.

As a reminder, the EC50 is the concentration giving half of the maximal effect.

These data come from patent US20260070974A1 (NONA BIOSCIENCES SUZHOU, published 2026).
